For assay [1], the target named is human CD33 P201A (human, UniProt P20138 18-364). Nature of the assay: alanine scan, flow cytometry.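 Also: HEK293-T cells transiently expressing single-residue alanine mutants of CD33 (alanine swapped to serine), antibody binding read by fluorescence in duplicate, background-subtracted, expressed relative to wild-type CD33.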 In general terms: A flow cytometer gives signals particle by particle.
Assay [2] concerns the target human CD33 D205A (human, UniProt P20138 18-364). Briefly: alanine scan, flow cytometry.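 Also: HEK293-T cells transiently expressing single-residue alanine mutants of CD33 (alanine swapped to serine), antibody binding read by fluorescence in duplicate, background-subtracted, expressed relative to wild-type CD33.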
The target in assay [3] is human CD33 H206A (human, UniProt P20138 18-364). Briefly: alanine scan, flow cytometry.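 Also: HEK293-T cells transiently expressing single-residue alanine mutants of CD33 (alanine swapped to serine), antibody binding read by fluorescence in duplicate, background-subtracted, expressed relative to wild-type CD33.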
Assay [4] addresses human CD33 G207A (human, UniProt P20138 18-364). Nature of the assay: alanine scan, flow cytometry.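 Also: HEK293-T cells transiently expressing single-residue alanine mutants of CD33 (alanine swapped to serine), antibody binding read by fluorescence in duplicate, background-subtracted, expressed relative to wild-type CD33.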
The target of assay [5] is human CD33 Q213A (human, UniProt P20138 18-364). Briefly: alanine scan, flow cytometry.
Assay [6] addresses human CD33 V214A (human, UniProt P20138 18-364). Briefly: alanine scan, flow cytometry.
Assay [7] concerns the target human CD33 K215A (human, UniProt P20138 18-364). Briefly: alanine scan, flow cytometry.
Assay [8] deals with human CD33 G218A (human, UniProt P20138 18-364). Nature of the assay: alanine scan, flow cytometry.
Assay [9] deals with human CD33 A219S (human, UniProt P20138 18-364). Briefly: alanine scan, flow cytometry.
Assay [10] concerns the target human CD33 V221A (human, UniProt P20138 18-364). Nature of the assay: alanine scan, flow cytometry.
Assay [11] has as its target human CD33 T232A (human, UniProt P20138 18-364). Nature of the assay: alanine scan, flow cytometry.
The target of assay [12] is human CD33 V196A (human, UniProt P20138 18-364). Briefly: alanine scan, flow cytometry.
Assay [13] has as its target human CD33 F243A (human, UniProt P20138 18-364). Nature of the assay: alanine scan, flow cytometry.
The target of assay [14] is human CD33 P244A (human, UniProt P20138 18-364). Nature of the assay: alanine scan, flow cytometry.
human CD33 P244A, sequence (P20138 18-364 P244A limits assumed): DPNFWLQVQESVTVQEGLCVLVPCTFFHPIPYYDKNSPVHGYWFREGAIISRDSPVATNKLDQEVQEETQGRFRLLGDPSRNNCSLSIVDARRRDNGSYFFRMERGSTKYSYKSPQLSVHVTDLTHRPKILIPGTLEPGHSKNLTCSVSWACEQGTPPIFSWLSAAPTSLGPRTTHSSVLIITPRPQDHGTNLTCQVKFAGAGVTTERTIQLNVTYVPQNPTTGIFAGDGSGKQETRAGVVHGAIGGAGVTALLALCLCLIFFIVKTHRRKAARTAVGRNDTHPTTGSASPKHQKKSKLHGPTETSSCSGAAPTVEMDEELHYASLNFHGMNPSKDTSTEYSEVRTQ
In assay [15] the target is human CD33 G245A (human, UniProt P20138 18-364). Briefly: alanine scan, flow cytometry.
human CD33 G245A, sequence (P20138 18-364 G245A limits assumed): as the sequence (P20138 18-364 P244A limits assumed) above, with A227P, G228A counted along it
The target in assay [16] is human CD33 D246A (human, UniProt P20138 18-364). Briefly: alanine scan, flow cytometry.
Assay [17] addresses human CD33 G247A (human, UniProt P20138 18-364). Briefly: alanine scan, flow cytometry.
The target of assay [18] is human CD33 K250A (human, UniProt P20138 18-364). Nature of the assay: alanine scan, flow cytometry.
human CD33 K250A, sequence (P20138 18-364 K250A limits assumed): as the sequence (P20138 18-364 P244A limits assumed) above, with A227P, K233A counted along it
Assay [19] has as its target human CD33 R254A (human, UniProt P20138 18-364). Briefly: alanine scan, flow cytometry.
In assay [20] the target is human CD33 G260A (human, UniProt P20138 18-364). Nature of the assay: alanine scan, flow cytometry.
For assay [21], the target named is T1, human CD33 I198A (human, UniProt P20138 18-364).
T1 construct: the leading token is not explained
T1 sequence (P20138 18-364 I198A limits assumed): as the sequence (P20138 18-364 P244A limits assumed) above, with I181A, A227P counted along it
Nature of the assay: alanine scan, flow cytometry.

Assay [22] addresses human CD33 A261S (human, UniProt P20138 18-364). Nature of the assay: alanine scan, flow cytometry.
The target of assay [23] is human CD33 A265S (human, UniProt P20138 18-364). Briefly: alanine scan, flow cytometry.
human CD33 A265S, sequence (P20138 18-364 A265S limits assumed): as the sequence (P20138 18-364 P244A limits assumed) above, with A227P, A248S counted along it
Assay [24] addresses human CD33 G266A (human, UniProt P20138 18-364). Briefly: alanine scan, flow cytometry.
The target in assay [25] is human CD33 C276A (human, UniProt P20138 18-364). Nature of the assay: flow cytometry, HEK293-T, alanine scan.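 Also: transiently transfected HEK293-T cells expressing single alanine mutants of human CD33 (alanine residues changed to serine), antibody binding fluorescence minus background, relative to wild type CD33, mean of duplicates.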
Protocol: (§1) An alanine scan on human CD33 was performed to the determine the residues on CD33 that are involved in binding to the antibodies investigated. […] Briefly, a mutation library of CD33 was created by high-throughput, site-directed mutagenesis. Each residue was individually mutated to alanine, with alanine codons mutated to serine. The mutant library was arrayed in 384-well microplates and transiently transfected into HEK293-T. Following transfection, cells were incubated with the indicated antibodies (IgG or Fab) at concentrations pre-determined using an independent immunofluorescence titration curve on wild type CD33. […] Binding of each antibody to each mutant clone was determined in duplicates. For each point, background fluorescence was subtracted from the raw data, which were then normalized to antibody reactivity with wild type CD33.
(§2) Critical residues for antibody binding (outlined in dark grey) were residues whose mutations led to a binding of the test Abs of less than 20%. Additional secondary residues (outlined in light grey) were identified that led to a binding of the test Abs of between 20 and 40% as compared to the wild type CD33.
Assay [26] deals with human CD33 L277A (human, UniProt P20138 18-364). Briefly: flow cytometry, HEK293-T, alanine scan.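 Also: transiently transfected HEK293-T cells expressing single alanine mutants of human CD33 (alanine residues changed to serine), antibody binding fluorescence minus background, relative to wild type CD33, mean of duplicates.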
human CD33 L277A, sequence (P20138 18-364 L277A limits assumed): as the sequence (P20138 18-364 P244A limits assumed) above, with A227P, L260A counted along it
Protocol: as §1, §2
For assay [27], the target named is human CD33 I278A (human, UniProt P20138 18-364). Briefly: flow cytometry, HEK293-T, alanine scan.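 Also: transiently transfected HEK293-T cells expressing single alanine mutants of human CD33 (alanine residues changed to serine), antibody binding fluorescence minus background, relative to wild type CD33, mean of duplicates.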
Protocol: as §1, §2
For assay [28], the target named is human CD33 F279A (human, UniProt P20138 18-364). Briefly: flow cytometry, HEK293-T, alanine scan.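 Also: transiently transfected HEK293-T cells expressing single alanine mutants of human CD33 (alanine residues changed to serine), antibody binding fluorescence minus background, relative to wild type CD33, mean of duplicates.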
human CD33 F279A, sequence (P20138 18-364 F279A limits assumed): as the sequence (P20138 18-364 P244A limits assumed) above, with A227P, F262A counted along it
Protocol: as §1, §2
Assay [29] deals with human CD33 I281A (human, UniProt P20138 18-364). Nature of the assay: flow cytometry, HEK293-T, alanine scan.
Protocol: as §1, §2
Assay [30] addresses human CD33 A290S (human, UniProt P20138 18-364). Nature of the assay: flow cytometry, HEK293-T, alanine scan.
Protocol: as §1, §2
The target in assay [31] is human CD33 R291A (human, UniProt P20138 18-364). Nature of the assay: flow cytometry, HEK293-T, alanine scan.
human CD33 R291A, sequence (P20138 18-364 R291A limits assumed): as the sequence (P20138 18-364 P244A limits assumed) above, with A227P, R274A counted along it
Protocol: as §1, §2
The target of assay [32] is human CD33 G295A (human, UniProt P20138 18-364). Briefly: flow cytometry, HEK293-T, alanine scan.
Protocol: as §1, §2
In assay [33] the target is human CD33 T303A (human, UniProt P20138 18-364). Briefly: flow cytometry, HEK293-T, alanine scan.
human CD33 T303A, sequence (P20138 18-364 T303A limits assumed): as the sequence (P20138 18-364 P244A limits assumed) above, with A227P, T286A counted along it
Protocol: as §1, §2
Assay [34] addresses human CD33 K309A (human, UniProt P20138 18-364). Briefly: flow cytometry, HEK293-T, alanine scan.
Protocol: as §1, §2
The target of assay [35] is human CD33 G318A (human, UniProt P20138 18-364). Nature of the assay: flow cytometry, HEK293-T, alanine scan.
Protocol: as §1, §2
Assay [36] has as its target human CD33 S323A (human, UniProt P20138 18-364). Briefly: flow cytometry, HEK293-T, alanine scan.
Protocol: as §1, §2
Assay [37] has as its target human CD33 C325A (human, UniProt P20138 18-364). Nature of the assay: flow cytometry, HEK293-T, alanine scan.
Protocol: as §1, §2
In assay [38] the target is human CD33 Y340A (human, UniProt P20138 18-364). Briefly: flow cytometry, HEK293-T, alanine scan.
Protocol: as §1, §2
Assay [39] addresses human CD33 C41A (human, UniProt P20138 18-364). Nature of the assay: alanine scan, flow cytometry.

human CD33 C41A, sequence (P20138 18-364 C41A limits assumed): as the sequence (P20138 18-364 P244A limits assumed) above, with C24A, A227P counted along it
human CD33 V214A, sequence (P20138 18-364 V214A limits assumed): as the sequence (P20138 18-364 P244A limits assumed) above, with V197A, A227P counted along it
human CD33 S323A, sequence (P20138 18-364 S323A limits assumed): as the sequence (P20138 18-364 P244A limits assumed) above, with A227P, S306A counted along it
human CD33 G247A, sequence (P20138 18-364 G247A limits assumed): as the sequence (P20138 18-364 P244A limits assumed) above, with A227P, G230A counted along it
human CD33 V221A, sequence (P20138 18-364 V221A limits assumed): as the sequence (P20138 18-364 P244A limits assumed) above, with V204A, A227P counted along it

B1: Refmab #6 (antibody, V domains shown)
VH: QVQLQQPGAEVVKPGASVKMSCKASGYTFTSYYIHWIKQTPGQGLEWVGVIYPGNDDISYNQKFQGKATLTADKSSTTAYMQLSSLTSEDSAVYYCAREVRLRYFDVWGQGTTVTVSS
VL: EIVLTQSPGSLAVSPGERVTMSCKSSQSVFFSSSQKNYLAWYQQIPGQSPRLLIYWASTRESGVPDRFTGSGSGTDFTLTISSVQPEDLAIYYCHQYLSSRTFGQGTKLEIK
notes: Full-length format is human IgG1 Fc silent (PG-LALA); also made as Fab; The alanine scan used IgG or Fab
Consider B1, for which the “Mean % WT Binding” value in assay [1] was 115 % WT binding; in assay [2] it was 3.1 % WT binding; in [3] it was 98.3 % WT binding; in assay [4] it was 98.6 % WT binding; in [5] it was 98 % WT binding; in [6] it was 94.4 % WT binding. Moreover, the “Mean % WT Binding” value in assay [7] was 85.6 % WT binding; in assay [8], 98 % WT binding; in assay [9], 92 % WT binding; in assay [10] it was 94.6 % WT binding; in assay [11] it was 79.6 % WT binding; in assay [12] it was 116 % WT binding. Also, the “Mean % WT Binding” value in assay [13] worked out at 98.2 % WT binding; in [14] it was 101 % WT binding; in assay [15], 91.8 % WT binding; in [16], 106 % WT binding; in [17], 105 % WT binding; in assay [18] it was 98 % WT binding. Besides, the “Mean % WT Binding” value was determined as 95.7 % WT binding in assay [19]; 97.2 % WT binding in assay [20]; 89.3 % WT binding in assay [21]; 56.7 % WT binding in [22]; 107 % WT binding in assay [23]; 82.6 % WT binding in assay [24].

B2: Refmab #6 (antibody, V domains shown)
VH: QVQLQQPGAEVVKPGASVKMSCKASGYTFTSYYIHWIKQTPGQGLEWVGVIYPGNDDISYNQKFQGKATLTADKSSTTAYMQLSSLTSEDSAVYYCAREVRLRYFDVWGQGTTVTVSS
VL: EIVLTQSPGSLAVSPGERVTMSCKSSQSVFFSSSQKNYLAWYQQIPGQSPRLLIYWASTRESGVPDRFTGSGSGTDFTLTISSVQPEDLAIYYCHQYLSSRTFGQGTKLEIK
notes: The alanine scan used IgG or Fab
On to B2, for which the “Mean % WT Binding” value in assay [25] stood at 100 % WT binding; in assay [26] it was 104 % WT binding; in assay [27], 108 % WT binding; in assay [28], 102 % WT binding; in assay [29] it was 104 % WT binding; in assay [30], 108 % WT binding. Also, the “Mean % WT Binding” value in assay [31] was 104 % WT binding; in [32], 92.1 % WT binding; in assay [33], 95.5 % WT binding; in assay [34], 98.8 % WT binding; in [35], 89.1 % WT binding; in assay [36] it was 106 % WT binding. Further, the entries for the “Mean % WT Binding” value in [37] and in assay [38] were 111 % WT binding and 101 % WT binding, respectively.

B3: Refmab #4 (antibody, V domains shown)
VH: QVQLVQSGAEVKKPGESVKVSCKASGYTFTNYGMNWVKQAPGQGLEWMGWINTYTGEPTYADKFQGRVTMTTDTSTSTAYMEIRNLGGDDTAVYYCARWSWSDGYYVYFDYWGQGTSVTVSS
VL: DIVMTQSPDSLTVSLGERTTINCKSSQSVLDSSTNKNSLAWYQQKPGQPPKLLLSWASTRESGIPDRFSGSGSGTDFTLTIDSPQPEDSATYYCQQSAHFPITFGQGTRLEIK
notes: Full-length format is human IgG1 Fc silent (PG-LALA); The alanine scan used IgG or Fab
As for B3, the “Mean % WT Binding” value in assay [39] came out at 9.8 % WT.

B4: Refmab #3 (antibody, V domains shown)
VH: QVQLVQSGAEVKKPGSSVKVSCKASGYTFTDYNMHWVRQAPGQGLEWIGYIYPYNGGTGYNQKFKSKATITADESTNTAYMELSSLRSEDTAVYYCARGRPAMDYWGQGTLVTVSS
VL: DIQMTQSPSSLSASVGDRVTITCRASESVDNYGISFMNWFQQKPGKAPKLLIYAASNQGSGVPSRFSGSGSGTDFTLTISSLQPDDFATYYCQQSKEVPWTFGQGTKVEIK
notes: as for B3
As to B4, the “Mean % WT Binding” value in assay [39] turned out to be 30.7 % WT.

B5: Refmab #5 (antibody, V domains shown)
VH: QVQLVQSGAEVKKPGASVKVSCKASGYTFTNYDINWVRQAPGQGLEWIGWIYPGDGSTKYNEKFKAKATLTADTSTSTAYMELRSLRSDDTAVYYCASGYEDAMDYWGQGTTVTVSS
VL: DIQMTQSPSSLSASVGDRVTINCKASQDINSYLSWFQQKPGKAPKTLIYRANRLVDGVPSRFSGSGSGQDYTLTISSLQPEDFATYYCLQYDEFPLTFGGGTKVEIK
notes: as for B1
B5: the “Mean % WT Binding” value was 111 % WT binding in assay [1]; 12.3 % WT binding in assay [2]; 108 % WT binding in assay [3]; 109 % WT binding in [4]; 128 % WT binding in assay [5]; 127 % WT binding in assay [6]. Also, the “Mean % WT Binding” value in [7] stood at 103 % WT binding; in assay [8], 102 % WT binding; in assay [9], 93.7 % WT binding; in [10] it was 116 % WT binding; in [11] it was 81.5 % WT binding; in assay [12] it was 84.5 % WT binding. The “Mean % WT Binding” value in assay [13] is 103 % WT binding; in assay [14], 107 % WT binding; in assay [15], 110 % WT binding; in [16], 115 % WT binding; in assay [17] it was 85.6 % WT binding; in assay [18], 85.7 % WT binding. Also, the “Mean % WT Binding” value stood at 94.7 % WT binding in assay [19]; 102 % WT binding in assay [20]; 84.7 % WT binding in assay [21]; 79.8 % WT binding in assay [22]; 99.7 % WT binding in assay [23]; 111 % WT binding in assay [24].

B6: Refmab #5 (antibody, V domains shown)
VH: QVQLVQSGAEVKKPGASVKVSCKASGYTFTNYDINWVRQAPGQGLEWIGWIYPGDGSTKYNEKFKAKATLTADTSTSTAYMELRSLRSDDTAVYYCASGYEDAMDYWGQGTTVTVSS
VL: DIQMTQSPSSLSASVGDRVTINCKASQDINSYLSWFQQKPGKAPKTLIYRANRLVDGVPSRFSGSGSGQDYTLTISSLQPEDFATYYCLQYDEFPLTFGGGTKVEIK
notes: as for B2
For the molecule B6, the “Mean % WT Binding” value in [25] turned out to be 95.4 % WT binding; in [26], 89 % WT binding; in assay [27], 100 % WT binding; in assay [28], 100 % WT binding; in [29] it was 115 % WT binding; in assay [30], 118 % WT binding. Besides, the “Mean % WT Binding” value in [31] stood at 103 % WT binding; in [32] it was 101 % WT binding; in [33], 82.4 % WT binding; in assay [34] it was 85.7 % WT binding; in assay [35], 87.1 % WT binding; in [36], 113 % WT binding. In addition, the “Mean % WT Binding” value in assay [37] amounted to 107 % WT binding; in assay [38] it was 88.6 % WT binding.

Values taken from patent US20260242735A1 (UNIVERSIT T BASEL, published 2026).
